The target of one data set is TmTsaD;TmTsaB (Thermotoga maritima;Thermotoga maritima, UniProt Q9WXZ2;Q9WZX7 1-327;1-206, |). Description: EMSA; TsaD2B2 tetramer; EMSA: 1 uM 6-FAM-tRNA, 0-100 uM protein, 2% agarose, 20 mM Tris-HCl/50 mM glycine pH 8.5 running buffer (loading buffer for native gels 20 mM Tris-HCl pH 7.5, 300 mM NaCl, 25% glycerol); MST: 10 nM tRNA, 20 mM PBS pH 7.5, 300 mM NaCl, 0.05% Tween 20, 25 C. The following applies: protein: recombinant;recombinant; tags: ;; chain copies: 2;2; label: 5' 6-FAM; tRNA cloverleaf. A general note: A gel shift assay detects complexes by their altered migration in electrophoresis.

Data set [1] deals with TmTsaD;TmTsaB dimer-interface mutant (Thermotoga maritima;Thermotoga maritima, UniProt Q9WXZ2;Q9WZX7 1-327;1-206, |E20A;D21A;L22A;E24A;S26A;Y27A;T28A;E30A;K31A). Description: EMSA; TsaDB dimer; EMSA: 1 uM 6-FAM-tRNA, 0-100 uM protein, 2% agarose, 20 mM Tris-HCl/50 mM glycine pH 8.5 running buffer (loading buffer for native gels 20 mM Tris-HCl pH 7.5, 300 mM NaCl, 25% glycerol); MST: 10 nM tRNA, 20 mM PBS pH 7.5, 300 mM NaCl, 0.05% Tween 20, 25 C. The following applies: protein: recombinant;recombinant; tags: ;; copies: 1;1; label: 5' 6-FAM; tRNA cloverleaf.

The target in the next data set is AaTsaD;AaTsaBmut (Aquifex aeolicus;Aquifex aeolicus, UniProt O66986;O66494 1-335;1-200+=WEKKKRG, |internal_change). Description: EMSA; TsaD2Bmut2 tetramer; EMSA: 1 uM 6-FAM-tRNA, 0-100 uM protein, 2% agarose, 20 mM Tris-HCl/50 mM glycine pH 8.5 running buffer (loading buffer for native gels 20 mM Tris-HCl pH 7.5, 300 mM NaCl, 25% glycerol); MST: 10 nM tRNA, 20 mM PBS pH 7.5, 300 mM NaCl, 0.05% Tween 20, 25 C. As to conditions: protein: recombinant;recombinant; tags: ;C-terminal 6His; chain copies: 2;2; label: 5' 6-FAM; tRNA cloverleaf.

A further data set has as its target AaTsaD del34-38;AaTsaB (Aquifex aeolicus;Aquifex aeolicus, UniProt O66986;O66494 1-335;1-200, del34-38|). Put plainly: EMSA; tighter than TsaD2B2; EMSA: 1 uM 6-FAM-tRNA, 0-100 uM protein, 2% agarose, 20 mM Tris-HCl/50 mM glycine pH 8.5 running buffer (loading buffer for native gels 20 mM Tris-HCl pH 7.5, 300 mM NaCl, 25% glycerol); MST: 10 nM tRNA, 20 mM PBS pH 7.5, 300 mM NaCl, 0.05% Tween 20, 25 C. As to conditions: protein: recombinant;recombinant; tags: ;C-terminal 6His; chain copies: 2;2; label: 5' 6-FAM; tRNA cloverleaf.

Another data set deals with AaTsaD;AaTsaB (Aquifex aeolicus;Aquifex aeolicus, UniProt O66986;O66494 1-335;1-200, |). Description: MST; not saturated at 100 uM; stronger than AaTsaDB; EMSA: 1 uM 6-FAM-tRNA, 0-100 uM protein, 2% agarose, 20 mM Tris-HCl/50 mM glycine pH 8.5 running buffer (loading buffer for native gels 20 mM Tris-HCl pH 7.5, 300 mM NaCl, 25% glycerol); MST: 10 nM tRNA, 20 mM PBS pH 7.5, 300 mM NaCl, 0.05% Tween 20, 25 C. The following applies: protein: recombinant;recombinant; tags: ;C-terminal 6His; chain copies: 2;2; label: 5' 6-FAM; tRNA cloverleaf.

The next data set deals with EcTsaD;EcTsaB (Escherichia coli;Escherichia coli, UniProt P05852;P76256 1-337;1-231, |). Put plainly: EMSA; TsaDB dimer; EMSA: 1 uM 6-FAM-tRNA, 0-100 uM protein, 2% agarose, 20 mM Tris-HCl/50 mM glycine pH 8.5 running buffer (loading buffer for native gels 20 mM Tris-HCl pH 7.5, 300 mM NaCl, 25% glycerol); MST: 10 nM tRNA, 20 mM PBS pH 7.5, 300 mM NaCl, 0.05% Tween 20, 25 C. As to conditions: protein: recombinant;recombinant; tags: ;; copies: 1;1; tRNA cloverleaf.
Sequence of EcTsaD;EcTsaB (P05852 whole entry, chain 1 of 2): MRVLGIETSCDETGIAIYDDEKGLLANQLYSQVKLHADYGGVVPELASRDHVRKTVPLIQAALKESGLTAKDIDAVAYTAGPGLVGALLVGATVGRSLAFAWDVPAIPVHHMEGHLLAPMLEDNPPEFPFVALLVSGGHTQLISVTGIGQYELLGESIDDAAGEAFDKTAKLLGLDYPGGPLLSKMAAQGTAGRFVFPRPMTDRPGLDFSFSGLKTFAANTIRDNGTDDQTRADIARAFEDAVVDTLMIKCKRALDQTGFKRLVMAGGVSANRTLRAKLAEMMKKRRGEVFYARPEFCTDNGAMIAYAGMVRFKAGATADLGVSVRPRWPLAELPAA
Sequence of EcTsaD;EcTsaB (P76256 whole entry, chain 2 of 2): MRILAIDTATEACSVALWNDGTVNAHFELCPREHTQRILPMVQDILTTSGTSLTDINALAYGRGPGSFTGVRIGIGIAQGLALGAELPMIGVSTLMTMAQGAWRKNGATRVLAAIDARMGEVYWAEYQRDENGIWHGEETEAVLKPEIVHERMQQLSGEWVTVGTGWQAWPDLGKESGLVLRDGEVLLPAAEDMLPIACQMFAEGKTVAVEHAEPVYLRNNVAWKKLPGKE

Sequence of AaTsaD del34-38;AaTsaB (O66986 other isoform, or with tags, fused parts or gaps del34-38|, chain 1 of 2): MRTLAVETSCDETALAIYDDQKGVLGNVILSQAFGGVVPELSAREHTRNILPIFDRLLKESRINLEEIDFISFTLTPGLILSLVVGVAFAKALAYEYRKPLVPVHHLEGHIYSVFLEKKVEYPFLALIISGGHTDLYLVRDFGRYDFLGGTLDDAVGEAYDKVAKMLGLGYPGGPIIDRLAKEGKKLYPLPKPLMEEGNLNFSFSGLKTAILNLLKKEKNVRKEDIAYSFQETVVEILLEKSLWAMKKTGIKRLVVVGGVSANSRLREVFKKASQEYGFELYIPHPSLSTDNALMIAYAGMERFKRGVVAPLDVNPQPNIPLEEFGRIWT
Sequence of AaTsaD del34-38;AaTsaB (chain, as listed by the source del34-38|, chain 2 of 2): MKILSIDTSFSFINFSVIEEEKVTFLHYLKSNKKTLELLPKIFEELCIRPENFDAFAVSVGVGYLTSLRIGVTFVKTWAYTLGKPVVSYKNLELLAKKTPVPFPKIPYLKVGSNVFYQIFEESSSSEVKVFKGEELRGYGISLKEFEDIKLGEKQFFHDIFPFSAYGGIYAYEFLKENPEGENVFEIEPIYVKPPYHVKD
Sequence of TmTsaD;TmTsaB (Q9WXZ2 whole entry, chain 1 of 2): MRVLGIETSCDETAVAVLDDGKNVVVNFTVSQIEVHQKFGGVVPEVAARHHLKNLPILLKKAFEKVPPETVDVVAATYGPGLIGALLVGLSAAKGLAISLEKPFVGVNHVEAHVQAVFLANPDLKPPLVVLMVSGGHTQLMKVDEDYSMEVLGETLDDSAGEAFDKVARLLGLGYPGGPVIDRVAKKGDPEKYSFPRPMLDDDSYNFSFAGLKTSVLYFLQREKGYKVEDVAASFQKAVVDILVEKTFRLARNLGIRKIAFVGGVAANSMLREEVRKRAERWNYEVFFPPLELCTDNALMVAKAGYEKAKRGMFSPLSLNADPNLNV
Sequence of TmTsaD;TmTsaB (Q9WZX7 whole entry, chain 2 of 2): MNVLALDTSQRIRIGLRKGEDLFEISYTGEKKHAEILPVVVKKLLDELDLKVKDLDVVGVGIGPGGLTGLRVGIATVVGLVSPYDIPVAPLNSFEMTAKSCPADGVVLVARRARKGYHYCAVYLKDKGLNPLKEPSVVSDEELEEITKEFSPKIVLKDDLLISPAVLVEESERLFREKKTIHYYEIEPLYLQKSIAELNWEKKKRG
Sequence of TmTsaD;TmTsaB dimer-interface mutant (Q9WXZ2 whole entry, stated change not applied, chain 1 of 2): as the sequence (Q9WXZ2 whole entry, chain 1 of 2) above
Sequence of TmTsaD;TmTsaB dimer-interface mutant (Q9WZX7 whole entry E20A/D21A/L22A/E24A/S26A/Y27A/T28A/E30A/K31A, chain 2 of 2): as the sequence (Q9WZX7 whole entry, chain 2 of 2) above, with E20A, D21A, L22A, E24A, S26A, Y27A, T28A, E30A, K31A counted along it
Sequence of AaTsaD;AaTsaB (O66986 whole entry, chain 1 of 2): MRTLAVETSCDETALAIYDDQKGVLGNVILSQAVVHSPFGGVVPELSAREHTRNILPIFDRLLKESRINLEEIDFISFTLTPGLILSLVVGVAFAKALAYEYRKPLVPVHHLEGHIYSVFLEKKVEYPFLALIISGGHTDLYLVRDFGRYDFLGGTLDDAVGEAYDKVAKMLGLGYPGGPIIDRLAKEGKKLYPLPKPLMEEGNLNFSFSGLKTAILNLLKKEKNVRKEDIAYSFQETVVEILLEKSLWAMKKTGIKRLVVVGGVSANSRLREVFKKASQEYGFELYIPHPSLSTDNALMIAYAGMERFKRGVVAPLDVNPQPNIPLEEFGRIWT
Sequence of AaTsaD;AaTsaB (chain, as listed by the source |, chain 2 of 2): as the sequence (chain, as listed by the source del34-38|, chain 2 of 2) above
Sequence of AaTsaD;AaTsaBmut (O66986 whole entry, change not shown, chain 1 of 2): as the sequence (O66986 whole entry, chain 1 of 2) above
Sequence of AaTsaD;AaTsaBmut (chain, as listed by the source |, chain 2 of 2): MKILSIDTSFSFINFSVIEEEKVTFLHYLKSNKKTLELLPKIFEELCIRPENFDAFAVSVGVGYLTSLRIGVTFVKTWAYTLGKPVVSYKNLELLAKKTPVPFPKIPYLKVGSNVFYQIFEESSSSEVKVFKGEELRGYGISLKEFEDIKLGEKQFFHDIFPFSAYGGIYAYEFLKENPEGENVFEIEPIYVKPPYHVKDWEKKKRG

B1: T. maritima tRNALysUUU (structured_RNA)
RNA: GACCCGGUAGCUCAGCAGGCAGAGCACCUGACUUUUAAUCAGGGGGUCGUGGGUUCGAAUCCCACCCGGGUCACCA
On to B1, for which the Kd was 1.2 µM with TmTsaD;TmTsaB and 1.72 µM in data set [1].

B2: A. aeolicus tRNALysUUU (structured_RNA)
RNA: GAGCCGGUAGCUCAGUUGGUAGAGCAACGGCCUUUUAAGCCGUGGGUCGCGGGUUCGAGUCCCGCCCGGCUCACCA
For the molecule B2, in the data set with AaTsaD;AaTsaBmut, the Kd is approximately 1.16 µM. Further, the binding result with AaTsaD del34-38;AaTsaB and with AaTsaD;AaTsaB was “binds” each time.

B3: E. coli tRNALysUUU (structured_RNA)
RNA: GGGUCGUUAGCUCAGUUGGUAGAGCAGUUGACUUUUAAUCAAUUGGUCGCAGGUUCGAAUCCUGCACGACCCACCA
Consider B3, for which, in the data set with EcTsaD;EcTsaB, the binding result is reported as “no binding”.

The Kd is a measure of binding affinity in units of concentration.

The values above are taken from PMC11648230, “Structure–function analysis of tRNA t6A-catalysis, assembly, and thermostability of Aquifex aeolicus TsaD2B2 tetramer in complex with TsaE”.
